Assay results taken from patent publication US20230192819A1 (TWIST BIOSCIENCE, published 2023).
Substitutions are numbered along the chain they refer to.

B1: Antibody 1-17 (Fc fusion)
chain: EVQLVESGGGLVQPGGSLRLSCAASGRTIVPYTMGWFRQAPGKEREEVAAISTGGGGTYYADSVKGRFTISADNSKNTAYLQMNSLKPEDTAVYYCAVDGPFGWGQGTLVTVSS
B2: Antibody 1-6 (Fc fusion)
chain: EVQLVESGGGLVQPGGSLRLSCAASGSISSINVMGWFRQAPGKEREWMGVMAYDGSTYYADSVKGRFTISADNSKNTAYLQMNSLKPEDTAVYYCAAFDGYSGSDWGQGTLVTVSS
B3: Antibody 1-20 (Fc fusion)
chain: EVQLVESGGGLVQPGGSLRLSCAASGRTFRRYTMGWFRQAPGKEREFVASITSSGVNAYADSVKGRFTISADNSKNTAYLQMNSLKPEDTAVYYCAKEDVGKPFDWGQDTLVTVSS
B4: Antibody 1-14 (Fc fusion)
chain: EVQLVESGGGLVQPGGSLRLSCAASGFTPDDYAMGWFRQAPGKEREFVAAINWSGVTTYHYYADSVKGRFTISADNSKNTAYLQMNSLKPEDTAVYYCASDESDAANWGQGTLVTVSS
B5: Antibody 1-3 (Fc fusion)
chain: EVQLVESGGGLVQPGGSLRLSCAASGTTFRINVMGWFRQAPGKEREFVAGISWTGGSTIYADSVKGRFTISADNSKNTAYLQMNSLKPEDTAVYYCAAFDGYSGSDWGQGTLVTVSS
B6: Antibody 1-11 (Fc fusion)
chain: B5 chain with T27F, R30D, I31D, N32Y, G50V, G56E, I59L
B7: Antibody 1-21 (Fc fusion)
chain: B5 chain with T27P, R30S, N32Y, V33A, F47L, T54N, I59N, S103T
B8: Antibody 1-2 (Fc fusion)
chain: EVQLVESGGGLVQPGGSLRLSCAASGGSEYSYSTFSSFVMGWFRQAPGKERELVASISWSGGHTFYADSVKGRFTISADNSKNTAYLQMNSLKPEDTAVYYCAAYLRGPYYSSFYDSTKYEWGQGTLVTVSS
B9: Antibody 1-16 (Fc fusion)
chain: EVQLVESGGGLVQPGGSLRLSCAASGRTYAMGWFRQAPGKERELVAEITAGGSTYYADSVKGRFTISADNSKNTAYLQMNSLKQEDTAVYYCAVDGPFGWGQGTLVTVSS
B10: Antibody 1-13 (Fc fusion)
chain: EVQLVESGGGLVQPGGSLRLSCAASGRTTFSSYTMGWFRQAPGKEREFVASITRSGVLNYADSVKGRFTISADNSKNTAYLQMNSLKPEDTAVYYCAKEDVGKPFDWGQGTLVTVSS

Tests used:
[1] = target: T1, Acro S1 spike protein (SARS-CoV-2) (SARS-CoV-2, UniProt P0DTC2 16-685); assay: SPR (Carterra LSA); […]; 1:1 model; […]
[2] = target: T1, Acro S1 spike protein (SARS-CoV-2); assay: SPR (Carterra LSA); antibody on chip, spike protein as analyte; summary table
[3] = target: T2, C52Hk S. African variant (Acro) spike protein (SARS-CoV-2, UniProt P0DTC2 16-1213); assay: SPR (Carterra LSA)
[4] = target: T3, C52Hg Brazilian variant (Acro) spike protein (SARS-CoV-2, UniProt P0DTC2 16-1213); assay: SPR (Carterra LSA)
[5] = target: T4, S1 variant B.1.1.7: UK (Acro) spike protein (SARS-CoV-2, UniProt P0DTC2 16-1213); assay: SPR (Carterra LSA)
[6] = target: T1, Acro S1 spike protein (SARS-CoV-2); assay: SPR (Carterra LSA)
[7] = target: T2, C52Hk S. African variant (Acro) spike …; assay: SPR (Carterra LSA); […]; 1:1 model; […]
[8] = target: T2, C52Hk S. African variant (Acro) spike …; assay: SPR (Carterra LSA); antibody on chip, spike protein as analyte; summary table
[9] = target: T3, C52Hg Brazilian variant (Acro) spike …; assay: as above
[10] = target: T3, C52Hg Brazilian variant (Acro) spike …; assay: SPR (Carterra LSA); […]; 1:1 model; […]
[11] = target: T4, S1 variant B.1.1.7: UK (Acro) spike …; assay: SPR (Carterra LSA); antibody on chip, spike protein as analyte; summary table
[12] = target: T4, S1 variant B.1.1.7: UK (Acro) spike …; assay: SPR (Carterra LSA); […]; 1:1 model; […]

Binder	Kd [1]	koff [1]	kon [1]	Kd [2]	binding result [3]	binding result [4]	binding result [5]	binding result [6]	further results
B1	5.15 nM	0.0017 s⁻¹	330000 M⁻¹ s⁻¹	5.15 nM	–	–	–	–	–
B2	–	–	–	–	no binding	no binding	no binding	no binding	–
B3	–	–	–	–	no binding	no binding	no binding	no binding	–
B4	–	–	–	–	no binding	no binding	no binding	no binding	–
B5	–	–	–	–	no binding	no binding	no binding	no binding	–
B6	–	–	–	–	–	–	–	–	Kd [7]: 5 nM; koff [7]: 0.0019 s⁻¹; kon [7]: 380000 M⁻¹ s⁻¹; Kd [8]: 5 nM; Kd [9]: 4.67 nM; Kd [10]: 4.67 nM; koff [10]: 0.0014 s⁻¹; kon [10]: 300000 M⁻¹ s⁻¹
B7	–	–	–	–	no binding	no binding	no binding	no binding	–
B8	2.41 nM	0.00053 s⁻¹	220000 M⁻¹ s⁻¹	2.41 nM	–	–	–	–	–
B9	–	–	–	–	–	–	–	–	Kd [9]: 4.79 nM; Kd [11]: 1.06 nM; Kd [12]: 1.06 nM; koff [12]: 0.00037 s⁻¹; kon [12]: 350000 M⁻¹ s⁻¹; Kd [10]: 4.79 nM; koff [10]: 0.0034 s⁻¹; kon [10]: 710000 M⁻¹ s⁻¹
B10	18.2 nM	0.0031 s⁻¹	170000 M⁻¹ s⁻¹	18.2 nM	–	–	–	–	Kd [11]: 5.18 nM; Kd [12]: 5.18 nM; koff [12]: 0.00088 s⁻¹; kon [12]: 170000 M⁻¹ s⁻¹
